Target: human recombinant cyclophilin (human) (UniProt P62937)
Experiment: competitive ELISA, human recombinant cyclophilin on coated BSA-cyclosporin A; reference cyclosporin A

human recombinant cyclophilin (human), sequence (P62937 whole entry): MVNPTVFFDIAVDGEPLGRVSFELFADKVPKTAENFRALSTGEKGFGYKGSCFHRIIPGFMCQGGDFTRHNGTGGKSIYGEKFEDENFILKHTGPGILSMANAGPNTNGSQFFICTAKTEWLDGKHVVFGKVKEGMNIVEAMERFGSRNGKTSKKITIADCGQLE

Row | Substance | Binding Ratio (BR), log10 of IC50 of test compound over IC50 of cyclosporin A [log10 ratio]
1 | [Ethyl-Val]^4-Ciclosporin (peptide) | 0
2 | [γ-hydroxy-MeLeu]^4-Ciclosporin (peptide) | 0.4
3 | [MeVal]^4-Ciclosporin (peptide) | 0.1
4 | [8′-hydroxy-MeBmt]^5-Ciclosporin (peptide) | 0.35
5 | [dihydro-MeBmt]^1-[γ-hydroxy-MeLeu]^4-Ciclosporin (peptide) | 0.1
6 | [MeVal]^5-Ciclosporin (peptide) | 0.4
7 | [Ethyl-lle]^4-Ciclosporin (peptide) | 0.1
8 | [γ-hydroxy-MeLeu]^9-Ciclosporin (peptide) | 0.15
9 | [MeAla]^6-Ciclosporin (peptide) | -0.4
10 | [Melle]^4-Ciclosporin (peptide) | -0.2

From patent US20090104149A1
